Laboratory results reported in patent US20210214414A1 (Pfizer, published 2021).

What was measured:
[1] = target: T1, Human SLIT2-N (human, UniProt O94813 31-1121, limits assumed); experiment: SPR, ROBO2-Fc 2.2 captured by anti-human Fc on a C1 chip, human SLIT2-N as analyte, 1:1 model
T1 construct: domain: SLIT2-N (N terminal fragment); Soluble analyte in SPR, d2-labelled in HTRF, overexpressed on HEK293 cells in flow cytometry; also called human SLIT2-N (N terminal fragment)
T1 sequence (looked up): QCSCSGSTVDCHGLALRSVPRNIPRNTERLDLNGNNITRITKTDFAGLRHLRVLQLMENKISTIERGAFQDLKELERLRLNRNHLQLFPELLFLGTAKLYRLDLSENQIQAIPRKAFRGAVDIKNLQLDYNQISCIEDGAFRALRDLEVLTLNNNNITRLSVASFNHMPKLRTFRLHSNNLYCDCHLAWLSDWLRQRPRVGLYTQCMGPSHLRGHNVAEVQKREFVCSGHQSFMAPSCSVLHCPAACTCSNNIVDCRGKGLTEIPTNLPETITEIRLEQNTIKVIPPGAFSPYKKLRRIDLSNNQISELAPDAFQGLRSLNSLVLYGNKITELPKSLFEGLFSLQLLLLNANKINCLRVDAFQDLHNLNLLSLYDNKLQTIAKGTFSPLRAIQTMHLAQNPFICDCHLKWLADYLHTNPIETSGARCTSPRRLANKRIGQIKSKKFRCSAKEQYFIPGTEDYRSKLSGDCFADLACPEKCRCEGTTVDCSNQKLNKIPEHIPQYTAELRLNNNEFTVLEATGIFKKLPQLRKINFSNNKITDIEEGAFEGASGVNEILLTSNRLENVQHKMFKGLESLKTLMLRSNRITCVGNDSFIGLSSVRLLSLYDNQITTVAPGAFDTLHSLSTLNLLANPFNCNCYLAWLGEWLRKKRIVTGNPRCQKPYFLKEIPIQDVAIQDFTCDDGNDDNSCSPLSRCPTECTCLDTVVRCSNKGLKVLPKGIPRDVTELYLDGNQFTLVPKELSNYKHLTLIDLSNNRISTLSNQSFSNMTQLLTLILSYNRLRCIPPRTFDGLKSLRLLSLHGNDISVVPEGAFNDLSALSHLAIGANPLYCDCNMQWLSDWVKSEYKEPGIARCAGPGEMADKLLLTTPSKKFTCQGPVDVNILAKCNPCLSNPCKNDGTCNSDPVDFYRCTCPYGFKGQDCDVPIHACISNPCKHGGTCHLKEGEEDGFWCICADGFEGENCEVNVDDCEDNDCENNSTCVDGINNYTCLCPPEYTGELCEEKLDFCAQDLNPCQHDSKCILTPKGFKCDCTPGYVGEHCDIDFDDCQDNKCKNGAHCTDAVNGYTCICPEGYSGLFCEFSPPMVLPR
Method: HBS-EP was used as a diluent. […] An 8 point 2-fold dilution series was performed on the SLIT2 ligands, ranging from 2 nM to 15.6 pM using HBS-EPB as the diluent. […] Association of the indicated SLIT2 ligand was followed for 120 s and dissociation monitored for 180 s. The apparent binding affinity was determined using a simple 1:1 interaction model of the kinetic rate constants.

[2] = target: T1, Human SLIT2-N; experiment: flow cytometry, AF647-labelled ROBO2-Fc 2.2 on HEK293 cells overexpressing human SLIT2-N (FIG. 5)
Method: After incubation, 150 μL of FACS buffer was added per well to wash the cells. After washing, cells were resuspended in buffer for data acquisition on a Fortessa Flow Cytometer.

[3] = target: T2, Rat SLIT1-N (rat, UniProt O88279 34-1124, limits assumed); experiment: HTRF competition: d2-labelled rat SLIT1-N binding to human ROBO2 on HEK293 cells; geometric mean, n=3
T2 construct: domain: SLIT1-N; d2-labelled in the HTRF assay
T2 sequence (looked up): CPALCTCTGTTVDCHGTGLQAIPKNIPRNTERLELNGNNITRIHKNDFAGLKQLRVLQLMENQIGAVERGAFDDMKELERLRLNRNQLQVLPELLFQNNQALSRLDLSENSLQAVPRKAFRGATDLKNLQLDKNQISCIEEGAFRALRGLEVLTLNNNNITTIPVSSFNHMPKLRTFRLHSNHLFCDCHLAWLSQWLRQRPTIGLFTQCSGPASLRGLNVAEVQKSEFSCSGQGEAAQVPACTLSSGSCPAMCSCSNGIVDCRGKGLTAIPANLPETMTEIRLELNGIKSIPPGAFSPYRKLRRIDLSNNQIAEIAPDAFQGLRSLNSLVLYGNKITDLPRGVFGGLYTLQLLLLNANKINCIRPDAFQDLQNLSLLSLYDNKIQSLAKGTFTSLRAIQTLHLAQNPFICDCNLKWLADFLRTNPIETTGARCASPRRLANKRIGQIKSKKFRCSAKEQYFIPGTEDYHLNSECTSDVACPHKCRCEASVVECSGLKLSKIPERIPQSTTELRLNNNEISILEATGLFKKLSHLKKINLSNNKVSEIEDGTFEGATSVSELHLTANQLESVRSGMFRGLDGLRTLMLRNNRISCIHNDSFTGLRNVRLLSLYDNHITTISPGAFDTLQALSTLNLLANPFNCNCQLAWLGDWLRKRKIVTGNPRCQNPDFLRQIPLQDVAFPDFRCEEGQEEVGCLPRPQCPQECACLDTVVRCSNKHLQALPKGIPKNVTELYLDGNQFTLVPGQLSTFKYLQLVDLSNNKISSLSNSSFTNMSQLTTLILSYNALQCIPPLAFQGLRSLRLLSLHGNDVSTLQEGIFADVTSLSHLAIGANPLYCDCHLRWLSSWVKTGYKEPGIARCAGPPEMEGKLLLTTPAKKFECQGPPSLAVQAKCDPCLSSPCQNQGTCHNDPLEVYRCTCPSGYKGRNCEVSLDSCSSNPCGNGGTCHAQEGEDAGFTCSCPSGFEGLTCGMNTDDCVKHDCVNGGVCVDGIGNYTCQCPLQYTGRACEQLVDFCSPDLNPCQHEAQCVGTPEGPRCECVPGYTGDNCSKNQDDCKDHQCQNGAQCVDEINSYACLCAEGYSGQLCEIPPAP
Method: After incubation, fluorescence at 665 nm and 620 nm was measured on an Envision multilabel plate reader. The HTRF Ratio was calculated as follows: fluorescence at 665 nm/fluorescence at 620 nm×10,000. […] The IC₅₀ for each SLITx-N was determined using an 11-point, 4-fold dilution series with a top concentration of 4000 nM.

B1: ROBO2-Fc 2.2 (Fc fusion)
chain: SRLRQEDFPPRIVEHPSDVIVSKGEPTTLNCKAEGRPTPTIEWYKDGERVETDKDDPRSHRMLLPSGSLFFLRIVHGRRSKPDEGSYVCVARNYLGEAVSRNASLEVALLRDDFRQNPTDVVVAAGEPAILECQPPRGHPEPTIYWKKDKVRIDDKEERISIRGGKLMISNTRKSDAGMYTCVGTNMVGERDSDPAELTVFERGGSGGSEPKSSDKTHTCPPCPAPEAAGAPSVFLFPPKPKDTLMISRTPEVTCVVVDVSHEDPEVKFNWYVDGVEVHNAKTKPREEQYNSTYRVVSVLTVLHQDWLNGKEYKCKVSNKALPAPIEKTISKAKGQPREPQVYTLPPSREEMTKNQVSLTCLVKGFYPSDIAVEWESNGQPENNYKTTPPVLDSDGSFFLYSKLTVDKSRWQQGNVFSCSVMHEALHNHYTQKSLSLSPG
notes: Labelled with Alexa Fluor 647 in the flow cytometry assay; also called ROBO-Fc 2.2; ROBO2-Fc 2.2-AF647
- Kd [1]: 0.279 nM
- EC50 [2]: 9 nM
- IC50 [3]: 8.3 nM
